Results as given in US20240391954A1, “MC4R AGONIST PEPTIDES” (The Regents of the University of Michigan, priority 2021, published 2024).
Positions of bridges follow the written chain, without caps; N, C: chain ends. Non-standard residues stand in square brackets, D forms with d. Cit = NC(=O)NCCC[C@H](N)C(=O)O; Aib = CC(C)(N)C(=O)O

What was measured:
Test in all cases: cell-based or functional assay
human MC4R receptor [1] = biological target: T1, human MC4R receptor (human, UniProt P32245 1-332)
T1 sequence (P32245 whole entry): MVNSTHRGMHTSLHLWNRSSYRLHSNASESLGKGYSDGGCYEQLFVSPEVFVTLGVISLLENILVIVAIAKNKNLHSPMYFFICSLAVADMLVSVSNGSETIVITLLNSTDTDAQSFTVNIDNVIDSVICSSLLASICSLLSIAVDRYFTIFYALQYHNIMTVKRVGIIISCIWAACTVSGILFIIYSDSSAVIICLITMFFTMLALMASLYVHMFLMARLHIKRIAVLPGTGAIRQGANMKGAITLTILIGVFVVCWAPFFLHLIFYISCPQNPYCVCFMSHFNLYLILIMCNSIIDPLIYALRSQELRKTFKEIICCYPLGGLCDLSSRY

human MC4R receptor [2] = biological target: T1, human MC4R receptor; remark: listed apart in the source
human MC3R = human MC3R (human, UniProt P41968 1-323)
human MC3R, sequence (P41968 whole entry): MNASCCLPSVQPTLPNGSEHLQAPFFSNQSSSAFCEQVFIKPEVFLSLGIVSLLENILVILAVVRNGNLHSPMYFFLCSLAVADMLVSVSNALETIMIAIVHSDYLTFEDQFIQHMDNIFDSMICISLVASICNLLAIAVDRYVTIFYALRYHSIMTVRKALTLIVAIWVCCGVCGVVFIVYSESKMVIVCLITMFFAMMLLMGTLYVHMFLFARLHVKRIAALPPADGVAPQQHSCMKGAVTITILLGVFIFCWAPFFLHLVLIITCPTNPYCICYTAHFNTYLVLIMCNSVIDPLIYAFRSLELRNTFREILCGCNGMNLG

Binder | MC4R selectivity vs MC1R (human MC4R receptor [1]) | MC4R selectivity vs MC3R (human MC4R receptor [1]) | % max activation (human MC4R receptor [2]) | cAMP EC50 (human MC4R receptor [2]) | % max activation (human MC3R) | cAMP EC50 (human MC3R)
{CH2CO}-[dA]R[dF]RFC-NH2 (thioether N-6; SMILES C[C@H]1NC(=O)CSC[C@@H](C(N)=O)NC(=O)[C@H](Cc2ccccc2)NC(=O)[C@H](CCCNC(=N)N)NC(=O)[C@@H](Cc2ccccc2)NC(=O)[C@H](CCCNC(=N)N)NC1=O) [CTX-1657] | 1.42 | 3.56 | 78% | 2470 nM | 30% | 8810 nM
{CH2CO}-GH[dF]RWC-NH2 (thioether N-6; SMILES N=C(N)NCCC[C@@H]1NC(=O)[C@@H](Cc2ccccc2)NC(=O)[C@H](Cc2c[nH]cn2)NC(=O)CNC(=O)CSC[C@@H](C(N)=O)NC(=O)[C@H](Cc2c[nH]c3ccccc23)NC1=O) [CTX-1644] | 4.84 | 53 | 111% | 2.3 nM | 107% | 120 nM
{CH2CO}-[Aib]H[dF]RFC-NH2 (thioether N-6; SMILES CC1(C)NC(=O)CSC[C@@H](C(N)=O)NC(=O)[C@H](Cc2ccccc2)NC(=O)[C@H](CCCNC(=N)N)NC(=O)[C@@H](Cc2ccccc2)NC(=O)[C@H](Cc2c[nH]cn2)NC1=O) [CTX-1650] | 0.95 | 53 | 113% | 288 nM | 125% | 15200 nM
{CH2CO}-GR[dF]RFC-NH2 (thioether N-6; SMILES N=C(N)NCCC[C@@H]1NC(=O)CNC(=O)CSC[C@@H](C(N)=O)NC(=O)[C@H](Cc2ccccc2)NC(=O)[C@H](CCCNC(=N)N)NC(=O)[C@@H](Cc2ccccc2)NC1=O) [CTX-1654] | 0.62 | 5.41 | 81% | 1090 nM | 43% | 5890 nM
{CH2CO}-GH[dF]RFC-NH2 (thioether N-6; SMILES N=C(N)NCCC[C@@H]1NC(=O)[C@@H](Cc2ccccc2)NC(=O)[C@H](Cc2c[nH]cn2)NC(=O)CNC(=O)CSC[C@@H](C(N)=O)NC(=O)[C@H](Cc2ccccc2)NC1=O) [CTX-1653] | 0.83 | > 8 | 83% | 1220 nM | – | > 10000 nM
{CH2CO}-[Aib]R[dF]RWC-NH2 (thioether N-6; SMILES CC1(C)NC(=O)CSC[C@@H](C(N)=O)NC(=O)[C@H](Cc2c[nH]c3ccccc23)NC(=O)[C@H](CCCNC(=N)N)NC(=O)[C@@H](Cc2ccccc2)NC(=O)[C@H](CCCNC(=N)N)NC1=O) [CTX-1648] | 13 | 63 | 101% | 1.1 nM | 91% | 72 nM
{CH2CO}-[dA][Cit][dF]RWC-NH2 (thioether N-6; SMILES C[C@H]1NC(=O)CSC[C@@H](C(N)=O)NC(=O)[C@H](Cc2c[nH]c3ccccc23)NC(=O)[C@H](CCCNC(=N)N)NC(=O)[C@@H](Cc2ccccc2)NC(=O)[C@H](CCCNC(N)=O)NC1=O) [CTX-1643] | 261 | 133 | 111% | 19 nM | 81% | 2550 nM
Ac-CGR[dF]RFC-NH2 (disulfide 1-7; SMILES CC(=O)N[C@H]1CSSC[C@@H](C(N)=O)NC(=O)[C@H](Cc2ccccc2)NC(=O)[C@H](CCCNC(=N)N)NC(=O)[C@@H](Cc2ccccc2)NC(=O)[C@H](CCCNC(=N)N)NC(=O)CNC1=O) [CTX-1638] | 1.04 | 1.66 | 110% | 351 nM | 75% | 408 nM
Ac-CG[Cit][dF]RFC-NH2 (disulfide 1-7; SMILES CC(=O)N[C@H]1CSSC[C@@H](C(N)=O)NC(=O)[C@H](Cc2ccccc2)NC(=O)[C@H](CCCNC(=N)N)NC(=O)[C@@H](Cc2ccccc2)NC(=O)[C@H](CCCNC(N)=O)NC(=O)CNC1=O) [CTX-1639] | 8.32 | 2.82 | 88% | 2730 nM | 44% | 7690 nM
{CH2CO}-[Aib]R[dF]RFC-NH2 (thioether N-6; SMILES CC1(C)NC(=O)CSC[C@@H](C(N)=O)NC(=O)[C@H](Cc2ccccc2)NC(=O)[C@H](CCCNC(=N)N)NC(=O)[C@@H](Cc2ccccc2)NC(=O)[C@H](CCCNC(=N)N)NC1=O) [CTX-1651] | 1.45 | > 8 | 92% | 1190 nM | – | > 10000 nM
{CH2CO}-GR[dF]RWC-NH2 (thioether N-6; SMILES N=C(N)NCCC[C@@H]1NC(=O)CNC(=O)CSC[C@@H](C(N)=O)NC(=O)[C@H](Cc2c[nH]c3ccccc23)NC(=O)[C@H](CCCNC(=N)N)NC(=O)[C@@H](Cc2ccccc2)NC1=O) [CTX-1645] | 9.04 | 42 | 110% | 1.6 nM | 97% | 68 nM
{CH2CO}-G[Cit][dF]RWC-NH2 (thioether N-6; SMILES N=C(N)NCCC[C@@H]1NC(=O)[C@@H](Cc2ccccc2)NC(=O)[C@H](CCCNC(N)=O)NC(=O)CNC(=O)CSC[C@@H](C(N)=O)NC(=O)[C@H](Cc2c[nH]c3ccccc23)NC1=O) [CTX-1646] | > 770 | 193 | 103% | 13 nM | 70% | 2420 nM
{CH2CO}-[dA]H[dF]RFC-NH2 (thioether N-6; SMILES C[C@H]1NC(=O)CSC[C@@H](C(N)=O)NC(=O)[C@H](Cc2ccccc2)NC(=O)[C@H](CCCNC(=N)N)NC(=O)[C@@H](Cc2ccccc2)NC(=O)[C@H](Cc2c[nH]cn2)NC1=O) [CTX-1656] | 1 | 1.64 | 98% | 1400 nM | 86% | 2300 nM
{CH2CO}-[Aib][Cit][dF]RWC-NH2 (thioether N-6; SMILES CC1(C)NC(=O)CSC[C@@H](C(N)=O)NC(=O)[C@H](Cc2c[nH]c3ccccc23)NC(=O)[C@H](CCCNC(=N)N)NC(=O)[C@@H](Cc2ccccc2)NC(=O)[C@H](CCCNC(N)=O)NC1=O) [CTX-1649] | 1650 | 72 | 97% | 6.6 nM | 79% | 479 nM
{CH2CO}-[Aib]H[dF]RWC-NH2 (thioether N-6; SMILES CC1(C)NC(=O)CSC[C@@H](C(N)=O)NC(=O)[C@H](Cc2c[nH]c3ccccc23)NC(=O)[C@H](CCCNC(=N)N)NC(=O)[C@@H](Cc2ccccc2)NC(=O)[C@H](Cc2c[nH]cn2)NC1=O) [CTX-1647] | 3.66 | 30 | 109% | 0.68 nM | 102% | 21 nM
{CH2CO}-[dA]R[dF]RWC-NH2 (thioether N-6; SMILES C[C@H]1NC(=O)CSC[C@@H](C(N)=O)NC(=O)[C@H](Cc2c[nH]c3ccccc23)NC(=O)[C@H](CCCNC(=N)N)NC(=O)[C@@H](Cc2ccccc2)NC(=O)[C@H](CCCNC(=N)N)NC1=O) [CTX-1642] | 13 | 29 | 107% | 2.9 nM | 90% | 83 nM
